Experimental data published in patent US20260234227A1 (CEPHALON, published 2026).
Substitutions are numbered along the chain they refer to. Names and notes keep the numbering of the source.

Tests used:
[1] = target: T1, vasoactive intestinal peptide (VIP) (human); assay: cell-based or functional assay
T1 peptide: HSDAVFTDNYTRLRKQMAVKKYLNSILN

[2] = target: T2, pituitary adenylate cyclase-activating peptide, 38-amino acid peptide (PACAP38) (human, not fully specified); assay: cell-based or functional assay
T2 peptide: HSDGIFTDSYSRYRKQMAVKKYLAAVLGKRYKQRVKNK

[3] = target: T2, pituitary adenylate cyclase-activating …; assay: SPR (Biacore) off-rate ranking, antibody captured from supernatant, single injection of 33.3 nM PACAP38
Method: In brief, antibody and peptide interaction was determined on a Biacore S200 (GE Healthcare) by method previously described (Andreu and Gomes 2002). An anti-Human IgG Fc capture antibody was immobilized on a CM5 biosensor chip via standard amine coupling. Anti-PACAP antibodies were injected and captured to 200 to 400 response units (RU),). PACAP38, PACAP27 and VIP were diluted in HBS-EP+buffer containing 0.1% w/v BSA (Bovostar, catalog number BSAS1.0) and 0.15 M NaCl (Sigma-Aldrich catalog number S7653), pH 7.4. […] For subsequent cycles, the chip was regenerated using 0.85% phosphoric acid. Data was analysed with the Biacore S200 Evaluation Software (ver 1.0). Association rate (kₐ) and dissociation rate (kd) constants were determined using a simple one-to-one Langmuir binding model and used to calculate the equilibrium dissociation constant (KD).

[4] = target: T2, pituitary adenylate cyclase-activating …; assay: cell-based or functional assay
[5] = target: T2, pituitary adenylate cyclase-activating …; assay: cell-based or functional assay
[6] = target: T2, pituitary adenylate cyclase-activating …; assay: SPR (Biacore), 37 C, antibody captured by anti-human IgG Fc, PACAP-38 as analyte
Method: (§1) In brief, antibody and peptide interaction was determined on a Biacore S200 (GE Healthcare) by method previously described (Andreu and Gomes 2002). An anti-Human IgG Fc capture antibody was immobilized on a CM5 biosensor chip via standard amine coupling. Anti-PACAP antibodies were injected and captured to 200 to 400 response units (RU),). PACAP38, PACAP27 and VIP were diluted in HBS-EP+buffer containing 0.1% w/v BSA (Bovostar, catalog number BSAS1.0) and 0.15 M NaCl (Sigma-Aldrich catalog number S7653), pH 7.4. Binding kinetics of antibodies were determined by injection of two-fold serial dilutions of PACAPs (12 nm to 0 nM) and VIP (1200 nM to 0 nM) in running buffer at 37° C. with a flow rate of 40 uL/min for 2 min followed by a dissociation for 10 minutes. For subsequent cycles, the chip was regenerated using 0.85% phosphoric acid. Data was analysed with the Biacore S200 Evaluation Software (ver 1.0). Association rate (kₐ) and dissociation rate (kd) constants were determined using a simple one-to-one Langmuir binding model and used to calculate the equilibrium dissociation constant (KD).

[7] = target: T2, pituitary adenylate cyclase-activating …; assay: cell-based or functional assay
Glucagon = assay: SPR (Biacore), captured antibody, 37.5 nM peptide injected at 37 C, relative response after 15 sec dissociation
Method: (§2) The anti-PACAP antibodies, e.g., 890C, were tested against related peptides in the Secretin Glucagon family (Table 10) to determine the presence and extent of any off-target binding. Nine bioactive peptides in the glucagon superfamily are: PACAP, VIP, glucagon, Glucagon-Like Peptides (GLP-1, GLP-2), Growth Hormone Releasing Factor (GRF or GHRF), Peptide Histidine Methionine (PHM), secretin, and Gastric inhibitory polypeptide (GIP). Following capture of antibodies as described in example 4, the antibody and the peptide interaction was measured by injection of 37.5 nM of each peptide diluted in buffer at 37° C. with a flow rate of […] for 2 min followed by a dissociation phase of 4-5 min. Samples were injected in a multi-cycle manner over freshly captured anti-PACAP antibody, by regenerating the capture surfaces with two injections of 0.85% phosphoric acid at a flow rate of 30 μL/min.
(§3) The selectivity of antibody 890C was assessed by comparing the inhibition of PACAP38-signalling to inhibition of VIP-signalling in a cyclic AMP (cAMP) measuring cell-based functional assay.

[8] = target: T3, Gastric inhibitory polypeptide (GIP); assay: as above
T3 peptide: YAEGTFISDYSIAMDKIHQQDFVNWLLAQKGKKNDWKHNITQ
Method: as §2, §3

Secretin = target: T4, Secretin; assay: as above
T4 construct: the listing entry is to be used
T4 peptide: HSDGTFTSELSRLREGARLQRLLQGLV
Method: as §2, §3

[9] = target: T5, Growth Hormone Releasing Factor (GRF or GHRF); assay: as above
T5 construct: the listing entry is to be used
T5 peptide: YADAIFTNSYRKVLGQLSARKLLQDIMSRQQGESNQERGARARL
Method: as §2, §3

[10] = target: T6, Glucagon-Like Peptide 2 (GLP-2); assay: as above
T6 peptide: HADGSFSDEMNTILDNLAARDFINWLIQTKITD
Method: as §2, §3

[11] = target: T7, Peptide Histidine Methionine (PHM); assay: as above
T7 peptide: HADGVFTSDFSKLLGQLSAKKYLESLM
Method: as §2, §3

[12] = target: T8, Glucagon-Like Peptide 1 (GLP-1); assay: as above
T8 peptide: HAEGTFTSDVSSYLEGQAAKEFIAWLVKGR
Method: as §2, §3

[13] = target: T9, pituitary adenylate cyclase-activating peptide, 27-amino acid peptide (PACAP27) (human, not fully specified); assay: SPR; target PACAP27
T9 peptide: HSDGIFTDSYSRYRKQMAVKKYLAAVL
Method: as §1, §3

[14] = target: T1, vasoactive intestinal peptide (VIP); assay: SPR; target VIP
Method: as §1, §3

[15] = target: T2, pituitary adenylate cyclase-activating …; assay: SPR; target PACAP38
Method: as §1, §3

[16] = target: T9, pituitary adenylate cyclase-activating …; assay: SPR (Biacore S200), 37 C, captured antibody, two-fold dilutions of peptide, 1:1 Langmuir model
[17] = target: T2, pituitary adenylate cyclase-activating …; assay: as above
[18] = target: T1, vasoactive intestinal peptide (VIP); assay: SPR (Biacore S200), 37 C, captured antibody, steady state binding

Sequence of Glucagon (peptide, as listed by the source): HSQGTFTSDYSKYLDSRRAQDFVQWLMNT

B1: anti-PACAP antibody 890C (antibody, human IgG4 S228P, kappa, V domains shown)
VH: EVQLVQSGAEVKKPGSSVKVSCKASGGTFSDVYMHWVRQAPGQGLEWMGLIYPIFADTRYAQKFQGRVTITADESTSTAYMELSSLRSEDTAVYYCAIDQDGSFAYWGQGTLVTVSS
VL: DIVMTQSPDSLAVSLGERATINCKSSQSLLDADGKTYLNWLQQKPGQPPKRLIYWASTRESGVPDRFSGSGSGTDFTLTISSLQAEDVAVYYCWQGTWFDLTFGGGTKVEIKR
notes: LC S(27E)A, G29, L50W, V51A, K53T, L54R, D55E, H93W, P95D
- IC50 (read off the curve), VIP-induced cAMP production in CHO-K1 cells expressing VPAC1 [1]: ~600 nM
- fold shift of the VIP/VPAC1 inhibition curve relative to the PACAP/PAC1 inhibition curve (selectivity) [1]: 1400 fold
- IC50 (read off the curve), PACAP38-induced cAMP production in CHO-K1 cells expressing PAC1 [2]: ~0.4 nM
- Kd [3]: 0.0284 nM
- koff [3]: 0.000671 s⁻¹
- kon [3]: 2.36e+07 M⁻¹ s⁻¹
- IC50 (nM), inhibition of PACAP-induced cAMP accumulation [4]: 0.32 nM
- selectivity, inhibition of PACAP38-induced cAMP production (PAC1 cells) versus VIP-induced cAMP production (VPAC1 cells) [5]: > 1000 fold
- Kd [6]: 0.0284 nM
- koff [6]: 0.000671 s⁻¹
- kon [6]: 2.36e+07 M⁻¹ s⁻¹
- IC50 (nM), PACAP-induced cAMP accumulation in CHO-K1 receptor cell lines (cAMP-Glo) [7]: 0.32 nM
- binding result (Glucagon): no binding (tested: 37.5 nM)
- binding result [8]: no binding (tested: 37.5 nM)
- binding result (Secretin): no binding (tested: 37.5 nM)
- binding result [9]: no binding (tested: 37.5 nM)
- binding result [10]: no binding (tested: 37.5 nM)
- binding result [11]: no binding (tested: 37.5 nM)
- binding result [12]: no binding (tested: 37.5 nM)
- Kd [13]: 0.218 nM
- Kd [14]: 390 nM
- Kd [15]: 0.054 nM

B2: anti-PACAP antibody 605C (antibody, V domains shown)
VH: B1 VH with V32S
VL: DIVMTQSPDSLAVSLGERATINCKSSQSLLDADGKTYLNWLQQKPGQPPKRLIYWASTRESGVPDRFSGSGSGTDFTLTISSLQAEDVAVYYCWQGTWFDLTFGGGTKVEIK
- Kd [16]: 0.154 nM
- koff [16]: 0.00101 s⁻¹
- kon [16]: 6.58e+06 M⁻¹ s⁻¹
- Kd [17]: 0.0328 nM
- koff [17]: 0.000565 s⁻¹
- kon [17]: 1.72e+07 M⁻¹ s⁻¹
- Kd [3]: 0.017 nM
- koff [3]: 0.000566 s⁻¹
- kon [3]: 3.33e+07 M⁻¹ s⁻¹
- IC50 (nM), inhibition of PACAP-induced cAMP accumulation [4]: 0.15 nM
- Kd [6]: 0.017 nM
- koff [6]: 0.000566 s⁻¹
- kon [6]: 3.33e+07 M⁻¹ s⁻¹
- Kd [18]: 225 nM
